Target: the molecule itself
Assay: SEC + other: densitometry of SDS-PAGE bands; ~600 kDa gel filtration fraction of the DptC/D/E complex resolved on Coomassie-stained SDS-PAGE, bands quantified by ImageJ and normalised by molecular mass; copy number worked out from the ~600 kDa mass and the equimolar amounts

B1: DptD (S. enterica serovar Cerro 87) (enzyme)
chain: MRANRLCLSMRKMNVLIKQLVLHNFRVFCGTHTIDLAPRKRPHEVNPRPIVLFGGLNGAGKTSILSAIRLALYGRLAFGPAMQQQEYVEQLGALVHNGTYTAERPDEAAVELTFTYNQNGHETEFTVTRSWKKGKKDRLSLQQDGQPRSELSYDQCQGFLNELIPHGVADLFFFDGEKIAELAEDESGNILRTAVRRLLGLDLIARLQNDLMIFIKRQQTAQLGGSQQQQVEALEAKIKTLAGQAEKLLEEADFVNSRIEFLSQDIIRHEGLLNAQGGAFAQTKAQEKQKVETLLKEKERLEKALRQECDGSLPYALAPNTLSRLLEKIANEAQIKQAKIFETELNQFLTQLKNDIAFRSSSESSTRAIATEAITNNLDAYMATKPKGDLLFDISEREAGMLQQSIEQDSKKAWQRFDMYRHQLADIEQQLEQAAANIARAPEDEQLMDLFAALRDLDHKREKQRQKYRSLLEEAKRTKQQQLDCVRQVQKAHDITRSQHGLSSAFKNAQETINLLDYYSNVLTQARVKKLSANFEIAYHKLARKEDLQLNAHINPQTFDVELVDEKGSVINRKLLSAGEKQIYAIAILEALAKTSGRDFPVIIDTPLGRLDSQHRDKLINHYFPEASHQVVLLSTDTEVDERYFVDRLRDDISHAYEIVFNAHTKSSALKPGYFWELTKEAV
notes: DptD (77 kDa), phosphorothioate-modifying protein of Salmonella enterica serovar Cerro 87; expressed from the coding region of the dptC/D/E operon; also called PT-modifying protein D; source: E. coli BL21 (DE3), co-overexpressed with His-DptC and DptE from pET-28a(+); in lysate, then co-purified with His-DptC (nickel column, gel filtration)
stoichiometry N: 4

B2: DptC with N-terminal His-tag (S. enterica serovar Cerro 87) (enzyme)
chain: MSKLVQAYDLAEYEDFINQEQFAGRPLAEYVAEVQRIYCADKRPWVIGYSGGKDSSAVITLVYLALLGLPPEMRSKDVFIVSSDTLVETPVVVDLIKKTMLQIEAGAKRNGLPITQHAVTPKTNETFWVNLLGKGYPAPTRSFRWCTERMKINPVSDFIKDKVSQFDEVIVVLGSRSSESASRAQVIAKHKIDGSRLARHTTLANAFIYTPIDTWDVEDVWKLLRGAFRYAPEDIDEWESPWGGNNRPLWTLYMDSSAQGECPLVIDESTPSCGNSRFGCWTCTVVTKDKAMESLIKNGEEWMSPLLKYRDLLAFTTDPANKDTYRNYKRRTGKVSYQYAKDGEDRSAERKHVPGPYWLKYRQQWLKDLLEIERDLNAQGHTITLITQPELHAIRQEWLKDPNEPDWHDTLPEIYREVYQQDLNWVVDDQSRFDASDADLLAQITQGFDVVPEMVMKLIELETSMEGLSRRQGIFDKLGTILKQDWGSLEEIQQQQATLQKRNDRDIHQDEVEKLEAELQTLQRRIIDAGESSVLIDEENERAH
notes: DptC, phosphorothioate-modifying protein of Salmonella enterica serovar Cerro 87; coding region of the dptC/D/E operon amplified from genomic DNA; the upstream primer begins at the ATG of dptC; also called His-Tag labeled DptC; labelled DptC; source: E. coli BL21 (DE3), co-overexpressed with DptD and DptE from pET-28a(+); in lysate, then purified (nickel HiTrap chelating column, Superdex gel …)
stoichiometry N: 4

B3: DptE (S. enterica serovar Cerro 87) (natural protein)
chain: MLPNRMVLSRQTEDQLKKLKGYTGITPNVAARLAFFRSVESEFRYSPERDSKKLDGSLVLDKITWLGETLQATELVLKMLYPQLEQKILIKAWAAHVDDGIAALRNYRSLKDFSKNI
notes: DptE (13 kDa), phosphorothioate-modifying protein of Salmonella enterica serovar Cerro 87; expressed from the coding region of the dptC/D/E operon; also called PT-modifying protein E; source: E. coli BL21 (DE3), co-overexpressed with His-DptC and DptD from pET-28a(+); in lysate, then co-purified with His-DptC (nickel column, gel filtration)
stoichiometry N: 4

— PMC4515589, “In vitro analysis of phosphorothioate modification of DNA reveals substrate recognition by a multiprotein complex” (Scientific Reports, 2015)
